In PMC3823233 (Nature structural & molecular biology, 2013):

Columns and labels:
[1] = target: BG505 SOSIP.664 gp140 trimer (HIV-1 clade A, isolate BG505 …, stabilised, glycosylated)
gp120 from strain JRCSF = gp120 from strain JRCSF (HIV-1 (isolate JRCSF), UniProt P20871); assay: ELISA
gp120 from strain JRFL = gp120 from strain JRFL (HIV-1 clade B, isolate JR-FL, UniProt Q75760, strain); assay: ELISA

B1: PGT 135 Fab (Fab, V domains shown)
VH: QLQMQESGPGLVKPSETLSLSCTVSGDSIRGGEWGDKDYHWGWVRHSAGKGLEWIGSIHWRGTTHYKESLRRRVSMSIDTSRNWFSLRLASVTAADTAVYFCARHRHHDVFMLVPIAGWFDVWGPGVQVTVSS
VL: EIVMTQSPDTLSVSPGETVTLSCRASQNINKNLAWYQYKPGQSPRLVIFETYSKIAAFPARFVASGSGTEFTLTINNMQSEDVAVYYCQQYEEWPRTFGQGTKVDIK
B1 was tested, and the “stoichiometry N” value [1] was 3 Fabs per trimer.

B2: PGT 135 IgG (antibody, V domains shown)
VH: B1 VH
VL: B1 VL
B2: binds (gp120 from strain JRCSF); binds (gp120 from strain JRFL).
